Assay results reported in article PMC9496334, “In Silico Maturation of a Nanomolar Antibody against the Human CXCR2” (Biomolecules, 2022).

Experiments:
[1] = target: T1, Biotin-labeled human CXCR2 N-terminal extracellular peptide (pepN48) (Homo sapiens, UniProt P25025, biotin label (position not given)); test: SPR; biotin-labeled pepN48 immobilised on a streptavidin Series S Sensor Chip SA; Biacore T200; IgG1 antibodies injected as analytes in HBS-EP+ buffer pH 7.4; kinetics fitted globally; conditions: both partners purified
T1 construct: CXC chemokine receptor 2 (CXCR2, interleukin 8 receptor beta), human, the first 48 residues of the protein; Held on the streptavidin chip by its biotin; also called N-terminal peptide; peptide of extracellular N-terminal domain of human CXCR2
T1 chain: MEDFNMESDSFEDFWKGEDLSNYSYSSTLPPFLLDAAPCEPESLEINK

[2] = target: T1, Biotin-labeled human CXCR2 N-terminal …; test: as above; conditions: both partners purified

Binder | Kd [1] | also measured
abN48 (antibody, V domains shown, VH of abN48; constant region of the human IgG1 heavy chain, from the pFuse heavy-chain vector; VL of abN48, the same for all studied antibodies; light-chain constant region of the pFuse light-chain vector pfuse2ss-hcll2; Full-length IgG1 in the experiments; the crystal structure 6KVF holds the Fab; also called abN48 antibody; source: 293F cells, co-transfected, purified from the medium (HiTrap …)) VH: QVQLVQSGAEVKKPGSSVKVSCKASGGTLSSYAISWVRQAPGQGPEWMGWINPNSGGTNYAQKFQGRVTMTRDTSISTAYMELSRLRPDDTAVYYCASGYCSSTSCYDYWGQGTLVTVSS VL: QAVLTQPSSLSASPGASVSLTCTLRSGINVGAYRIYWYQQKPGSPPQFLLRYKSDSDKQQGSGVPSRFSGSRDASANAGILLISGLRSEDEADYYCAIWHSSAWVFGGGTQLTVL | 1300 pM | –
abN48-28 (antibody, V domains shown, parent VH in PDB 6KVF; constant region of the human IgG1 heavy chain, from the pFuse heavy-chain vector; as the VL of the light chain of m1; light-chain constant region of the pFuse light-chain vector pfuse2ss-hcll2; Full-length IgG1; source: 293F cells, co-transfected, purified from the medium (HiTrap Protein A)) VH: QVQLVQSGAEVKKPGSSVKVSCKASGGTLSSYAISWVRQAPGQGPEWMGWINPNSGGTNYAQKFQGRVTMTRDTSISTAYMELSRLRPDDTAVYYCASGYCSPSGCYVYWGQGTLVTVSS VL: QAVLTQPSSLSASPGASVSLTCTLRSGINVGAYRIYWYQQKPGSPPQFLLRYKSDSDKQQGSGVPSRFSGSRDASANAGILLISGLRSEDEADYYCAIWHSSAWVFGGGTQLTVL | 650 pM | –
abN48-8 (antibody, V domains shown, parent VH in PDB 6KVF; constant region of the human IgG1 heavy chain, from the pFuse heavy-chain vector; as the VL of the light chain of m1; light-chain constant region of the pFuse light-chain vector pfuse2ss-hcll2; Full-length IgG1; source: 293F cells, co-transfected, purified from the medium (HiTrap Protein A)) VH: QVQLVQSGAEVKKPGSSVKVSCKASGGTLSSYAISWVRQAPGQGPEWMGWINPNSGGTNYAQKFQGRVTMTRDTSISTAYMELSRLRPDDTAVYYCASGYCNRTRCYDHWGQGTLVTVSS VL: QAVLTQPSSLSASPGASVSLTCTLRSGINVGAYRIYWYQQKPGSPPQFLLRYKSDSDKQQGSGVPSRFSGSRDASANAGILLISGLRSEDEADYYCAIWHSSAWVFGGGTQLTVL | 830 pM | –
abN48-10 (antibody, V domains shown, parent VH in PDB 6KVF; constant region of the human IgG1 heavy chain, from the pFuse heavy-chain vector; as the VL of the light chain of m1; light-chain constant region of the pFuse light-chain vector pfuse2ss-hcll2; Full-length IgG1; source: 293F cells, co-transfected, purified from the medium (HiTrap Protein A)) VH: QVQLVQSGAEVKKPGSSVKVSCKASGGTLSSYAISWVRQAPGQGPEWMGWINPNSGGTNYAQKFQGRVTMTRDTSISTAYMELSRLRPDDTAVYYCASGYCSRFNCKDYWGQGTLVTVSS VL: QAVLTQPSSLSASPGASVSLTCTLRSGINVGAYRIYWYQQKPGSPPQFLLRYKSDSDKQQGSGVPSRFSGSRDASANAGILLISGLRSEDEADYYCAIWHSSAWVFGGGTQLTVL | 270 pM | –
abN48-1 (antibody, V domains shown, parent VH in PDB 6KVF; constant region of the human IgG1 heavy chain, from the pFuse heavy-chain vector; as the VL of the light chain of m1; light-chain constant region of the pFuse light-chain vector pfuse2ss-hcll2; Full-length IgG1; source: 293F cells, co-transfected, purified from the medium (HiTrap Protein A)) VH: QVQLVQSGAEVKKPGSSVKVSCKASGGTLSSYAISWVRQAPGQGPEWMGWINPNSGGTNYAQKFQGRVTMTRDTSISTAYMELSRLRPDDTAVYYCASGFCTRTICFVYWGQGTLVTVSS VL: QAVLTQPSSLSASPGASVSLTCTLRSGINVGAYRIYWYQQKPGSPPQFLLRYKSDSDKQQGSGVPSRFSGSRDASANAGILLISGLRSEDEADYYCAIWHSSAWVFGGGTQLTVL | 260 pM | –
abN48-29 (antibody, V domains shown, parent VH in PDB 6KVF; constant region of the human IgG1 heavy chain, from the pFuse heavy-chain vector; as the VL of the light chain of m1; light-chain constant region of the pFuse light-chain vector pfuse2ss-hcll2; Full-length IgG1; source: 293F cells, co-transfected, purified from the medium (HiTrap Protein A)) VH: QVQLVQSGAEVKKPGSSVKVSCKASGGTLSSYAISWVRQAPGQGPEWMGWINPNSGGTNYAQKFQGRVTMTRDTSISTAYMELSRLRPDDTAVYYCASGYCGRARCTSFWGQGTLVTVSS VL: QAVLTQPSSLSASPGASVSLTCTLRSGINVGAYRIYWYQQKPGSPPQFLLRYKSDSDKQQGSGVPSRFSGSRDASANAGILLISGLRSEDEADYYCAIWHSSAWVFGGGTQLTVL | 130 pM | –
abN48-2 (antibody, V domains shown, VH of abN48-2: as the VH of m1 with two serines of CDR3 changed to arginines; parent VH in PDB 6KVF; constant region of the human IgG1 heavy chain, from the pFuse heavy-chain vector; as the VL of the light chain of m1; light-chain constant region of the pFuse light-chain vector pfuse2ss-hcll2; Full-length IgG1; source: 293F cells, co-transfected, purified from the medium (HiTrap Protein A)) VH: QVQLVQSGAEVKKPGSSVKVSCKASGGTLSSYAISWVRQAPGQGPEWMGWINPNSGGTNYAQKFQGRVTMTRDTSISTAYMELSRLRPDDTAVYYCASGYCSRTRCYDYWGQGTLVTVSS VL: QAVLTQPSSLSASPGASVSLTCTLRSGINVGAYRIYWYQQKPGSPPQFLLRYKSDSDKQQGSGVPSRFSGSRDASANAGILLISGLRSEDEADYYCAIWHSSAWVFGGGTQLTVL | – | Kd [2]: 110 pM; koff [2]: 0.00027 s⁻¹; kon [2]: 2.5e+06 M⁻¹ s⁻¹
abN48-3 (antibody, V domains shown, parent VH in PDB 6KVF; constant region of the human IgG1 heavy chain, from the pFuse heavy-chain vector; as the VL of the light chain of m1; light-chain constant region of the pFuse light-chain vector pfuse2ss-hcll2; Full-length IgG1; source: 293F cells, co-transfected, purified from the medium (HiTrap Protein A)) VH: QVQLVQSGAEVKKPGSSVKVSCKASGGTLSSYAISWVRQAPGQGPEWMGWINPNSGGTNYAQKFQGRVTMTRDTSISTAYMELSRLRPDDTAVYYCASGYCSFAICFDSWGQGTLVTVSS VL: QAVLTQPSSLSASPGASVSLTCTLRSGINVGAYRIYWYQQKPGSPPQFLLRYKSDSDKQQGSGVPSRFSGSRDASANAGILLISGLRSEDEADYYCAIWHSSAWVFGGGTQLTVL | 2000 pM | –
abN48-38 (antibody, V domains shown, parent VH in PDB 6KVF; constant region of the human IgG1 heavy chain, from the pFuse heavy-chain vector; as the VL of the light chain of m1; light-chain constant region of the pFuse light-chain vector pfuse2ss-hcll2; Full-length IgG1; source: 293F cells, co-transfected, purified from the medium (HiTrap Protein A)) VH: QVQLVQSGAEVKKPGSSVKVSCKASGGTLSSYAISWVRQAPGQGPEWMGWINPNSGGTNYAQKFQGRVTMTRDTSISTAYMELSRLRPDDTAVYYCASGYCSRSRCYDYWGQGTLVTVSS VL: QAVLTQPSSLSASPGASVSLTCTLRSGINVGAYRIYWYQQKPGSPPQFLLRYKSDSDKQQGSGVPSRFSGSRDASANAGILLISGLRSEDEADYYCAIWHSSAWVFGGGTQLTVL | 230 pM | –
